Key:
[1] = molecular target: T1, interaction between Gal3 and TIM-3 (Mus musculus, UniProt P16110); assay: Blocking ELISA, mouse Gal3 coated plate and mouse TIM-3 Fc; type: binding; details: mGal3 coated plate, mouse TIM-3 Fc
T1 construct: purchased BioLegend (mouse Gal3); R&D systems (mouse TIM-3 Fc)
Experimental: ELISA assays were also performed to test the interaction between Gal3 and TIM-3. 96 well ELISA plates (ThermoFisher Scientific) were coated with mouse Gal3 protein (BioLegend, San Diego, Calif.) in PBS or human Gal9 protein (R&D systems) in PBS or phosphatidylserine (PS) (Sigma) in ethanol and incubated at 4° C. for overnight. The plate was washed three times with TBST and then blocked with PBS buffer containing 2% BSA at room temperature for 1 hour. In FIG. 5A, different anti Gal3 antibodies, i.e. mGal3 polyclonal antibody (R&D systems), mAb IMT001 (also described in WO 2019/023247, hereby expressly incorporated by reference in its entirety), mAb M3/38 (Thermofisher Scientific) (FIG. 5A), were added to well that has been coated with Gal3. The antibodies were incubated for 10 minutes and mouse TIM-3 Fc were then added to the plates and incubated for an additional one-hour incubation. Plates were then washed for three times and followed by incubation with anti-human-IgG-HRP (Jackson ImmunoResearch) for 1 h at room temperature. The color was developed with TMB subtract (GeneTex, Irvine, Calif.) after three time washes with TBST and the reaction was terminated with 1N HCl. The optical density (OD) was read at 450 nm. The results were expressed as the average OD of duplicates±SD. […]

B16F10 cells [2] = assay: Immune profiling in B16F10 lung metastasis mice; type: in vivo, mouse; details: 10 mg/kg I.P., day 8, vs isotype control
Experimental: Mice were implanted with 1 million B16F10 cells I.V. Mice were then treated with IMT001 or isotype control (10 mg/kg I.P.) on Day 0, 1, 3 and 7 and sacrificed on day 8 for lung immune cell isolation and phenotyping. Cells were isolated from the lungs, and then stained with fluorescently labeled antibodies against lymphocyte markers CD3, CD4, CD8, CD19, DX5 and analyzed by flow cytometry.

[3] = tested on: RAW macrophages/DO11.10 T cell mixed reaction; assay: Mixed Lymphocyte Reaction, RAW macrophages/DO11.10 T cells, IL-2; type: cell-based, mouse; details: 10 μg/ml, overnight, vs mIgG
Experimental: RAW mouse macrophage cells were mixed with […] mouse T cells at 1:1 ratio, treated with OVA peptide, and cultured in the presence of mIgG (BD Biosciences), anti mPD1 antibody 29F (BioXCell) or IMT001 at 10 μg/ml for overnight 37° C. 50 μl of the culture medium was taken for mIL-2 measurement. The mIL-2 production was measured according to the commercial kit mouse IL-2 Elisa Ready-SET-Go from eBioscience.

human Gal3-His = human Gal3-His (Homo sapiens, UniProt P17931); assay: Antibody binning by biolayer interferometry (Gator); type: binding; details: antibody competition
Experimental: To determine whether Gal3-binding antibodies with Gal3-TIM3 blocking activity bind to the same or overlapping regions of the Gal3 molecule, antibody binning assays were performed to assess the ability of antibodies to simultaneously bind Gal3. Amine-reactive probes were loaded onto a Gator biosensor (Probe Life, Palo Alto, Calif.), equilibrated in dH20 for 60 seconds, dipped into 100 μl EDC 0.2M/NHS 0.05M activation buffer for 30 seconds, then dipped into a solution of […] human Gal3-His in 10 mM NaOAc buffer, pH 5 until binding was saturated, and quenched in 1 M ethanolamine pH 8.5 for 300 seconds. Following Gal3-His loading, tips were dipped in 20 μg/mL saturating antibody, then successively dipped into 5 μg/mL competing antibody.

[4] = tested on: mouse unilateral ureteral obstruction (UUO) model of kidney fibrosis; assay: Mouse UUO model of kidney fibrosis (Example 32); type: in vivo; details: administered one day after UUO surgery
Excerpt: To further evaluate the ability of GAL3-targeted antibodies with the ability to block TIM3-GAL3 assembly to impact fibrosis, we evaluated the impact of humanized IMT001-4 and IMT006-1 in the mouse unilateral ureteral obstruction (UUO) model of kidney fibrosis. Briefly, 8-week-old C57BL/6J male mice were divided into sham, UUO with HuIgG4−, and UUO with HuIMT001-4, HuIMT006-1, and UUO with metformin-treatment. HuIgG4, HuIMT001-4 and HuIMT006-1 were each administered by intraperitoneal route at 10 mg/kg Q2Dx3 whereas metformin (500 mg/kg/day) was administered to mice dissolved in drinking water. In some settings therapeutic antibodies or metformin was administered 1 day before UUO, whereas in other experiments therapeutic antibodies or metformin was administered 1 day after UUO. After 7 days of UUO surgery, mice were sacrificed, left kidney was harvested and fixed with 4% paraformaldehyde for immunohistochemistry (IHC) and blood was collected in Heparin-EDTA tubes for blood biochemistry analysis. Levels of plasma mouse TIM-1/KIM-1/HAVCR were measured using a commercial ELISA kit (Catalog #MKM100; R&D Systems, Minneapolis, Minn.) according to the protocol provided by the manufacturer. Levels of plasma mouse Lipocalin-2/NGAL were measured using a commercial ELISA kit (Catalog #DY1857; R&D Systems, Minneapolis, Minn.) according to the protocol provided by the manufacturer. 5 um sections of fixed kidney specimens were produced and processed for picosirius red staining as described for liver specimens above.
To evaluate the robustness of TIM3-GAL3 blocking antibodies in reducing kidney fibrosis, the ability of mIMT001 to inhibit fibrosis when administered one day after UUO surgery was evaluated. Following UUO surgery and treatment with isotype or control antibodies, kidney specimens were harvested and stained by IHC for Collagen 1a1 (Col1a1), a marker of kidney fibrosis.

B16F10 cells [5] = tested on: B16F10 cells
Experimental: The animal experiments were conducted according to a protocol approved by the Molecular Medicine Research Institute Institutional Animal Care and Use Committee. C57BL/6 mice were placed in a facility accredited by the Association for Assessment and Accreditation of Laboratory Animal Care upon arrival. Thirty six of 7-week old female mice were randomly assigned into three groups (n=12). On day 0, B16F10 cells (2×10^5 in 0.1 mL PBS) were washed and resuspended in PBS before injection into the tail veins of mice using a syringe with a 27-ga needle. […] On day 21, the animals were humanely sacrificed and lung tissues were removed and fixed in a 10% buffered formaldehyde solution. The number of black metastatic colonies on one surface of the left lobes in the lungs were counted (FIG. 7B). Results were expressed as mean±SEM. The statistical analysis was performed in comparison with IgG control group using one-way ANOVA.

T1 sequence (P16110 2-264 limits assumed): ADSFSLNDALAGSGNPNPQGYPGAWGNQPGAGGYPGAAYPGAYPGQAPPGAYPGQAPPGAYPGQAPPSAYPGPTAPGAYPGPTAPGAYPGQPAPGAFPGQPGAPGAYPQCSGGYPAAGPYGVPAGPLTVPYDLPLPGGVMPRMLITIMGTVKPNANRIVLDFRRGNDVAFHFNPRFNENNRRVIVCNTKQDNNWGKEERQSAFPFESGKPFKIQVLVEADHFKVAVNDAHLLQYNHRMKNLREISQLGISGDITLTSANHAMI
human Gal3-His, sequence (P17931 whole entry): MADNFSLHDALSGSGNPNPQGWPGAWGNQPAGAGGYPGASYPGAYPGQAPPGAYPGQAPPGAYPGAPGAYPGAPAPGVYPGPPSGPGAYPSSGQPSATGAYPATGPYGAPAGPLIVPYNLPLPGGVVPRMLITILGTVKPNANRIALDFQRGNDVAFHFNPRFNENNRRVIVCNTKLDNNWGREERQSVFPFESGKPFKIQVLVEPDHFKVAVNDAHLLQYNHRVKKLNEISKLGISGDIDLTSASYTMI

B1: IMT001: anti-Gal3 monoclonal antibody (Immutics); printed as mIMT001 (IMT001), murine (antibody, V domains shown)
VH: QIQLVQSGPELKKPGETVKISCKASGYTFTNYGMNWVKQAPGKGLKWMGWINTNTGEPTYVEEFKGRFAFSLETSASTAYLQINNLKNEDTATYFCAPYDNFFAYWGQGTLVTVSA
VL: DIVITQDELSNPVTSGESVSISCRSSKSLLYKDGKTYLNWFLQRPGQSPQLLIYLMSTHASGVSDRFSGSGSGTDFTLEISRVKAEDVGVYYCQQLVDYPLTFGAGTKLELK
For B1, the “block of Gal3 binding to TIM-3” value [1] was “blocked”, the “number of immune effector cells in lungs (CD3, CD4, CD8, CD19, DX5)” value (B16F10 cells [2]) was “increased the number of various immune effector cell” and the “production of IL-2” value [3] was “enhanced the production of IL-2”. The Bin (human Gal3-His) was 1, the “Col1a1 staining, image quantification” value [4] was 9.17 intensity units and the “Col1a1 staining, qualitative” value [4] was “reduced levels of Col1a1 staining”. The “overall reduction in Col1a1” value [4] was 48%, the “reduction of tumor number (black metastatic colonies)” value (B16F10 cells [5]; 10 mg/Kg i.p., day 21, vs isotype control) was “about 46%” and the “anti-tumor effect, tumor number” value (B16F10 cells [5]; 10 mg/Kg i.p., vs isotype control) was “significant reduction of tumor number”. The “tumor burden as indicated by lung weight” value (B16F10 cells [5]; vs isotype control) was “much less tumor burden”.

From US20220380473A1, “ANTI-GAL3 ANTIBODIES AND USES THEREOF” (TrueBinding, Inc., priority 2019, published 2022)
